In PMC5467213, “Architecture of the RNA polymerase II-Paf1C-TFIIS transcription elongation complex” (Nature Communications, 2017):

Key:
[1] = target: T1, Ctr9 (full length, C-terminal hexahistidine tag) (S. cerevisiae, UniProt P89105 1-1077); assay: co-purification after coexpression (Ni-NTA, cation exchange, SEC); subunits coexpressed in E. coli from three vectors, cells colysed; Ni-NTA (hexahistidine tag on Ctr9), HiTrap SP cation exchange, Superose 6 size exclusion; SDS-PAGE, subunits confirmed by mass spectrometry; settings: partners not purified
T1 construct: Ctr9, S. cerevisiae, full length, amplified from genomic DNA, in pET24b; source: E. coli BL21 CodonPlus(DE3)RIL, coexpressed with the other subunits; in lysate and purified as part of Paf1C; not shown: His6, C-terminal, kept
T1 sequence (looked up): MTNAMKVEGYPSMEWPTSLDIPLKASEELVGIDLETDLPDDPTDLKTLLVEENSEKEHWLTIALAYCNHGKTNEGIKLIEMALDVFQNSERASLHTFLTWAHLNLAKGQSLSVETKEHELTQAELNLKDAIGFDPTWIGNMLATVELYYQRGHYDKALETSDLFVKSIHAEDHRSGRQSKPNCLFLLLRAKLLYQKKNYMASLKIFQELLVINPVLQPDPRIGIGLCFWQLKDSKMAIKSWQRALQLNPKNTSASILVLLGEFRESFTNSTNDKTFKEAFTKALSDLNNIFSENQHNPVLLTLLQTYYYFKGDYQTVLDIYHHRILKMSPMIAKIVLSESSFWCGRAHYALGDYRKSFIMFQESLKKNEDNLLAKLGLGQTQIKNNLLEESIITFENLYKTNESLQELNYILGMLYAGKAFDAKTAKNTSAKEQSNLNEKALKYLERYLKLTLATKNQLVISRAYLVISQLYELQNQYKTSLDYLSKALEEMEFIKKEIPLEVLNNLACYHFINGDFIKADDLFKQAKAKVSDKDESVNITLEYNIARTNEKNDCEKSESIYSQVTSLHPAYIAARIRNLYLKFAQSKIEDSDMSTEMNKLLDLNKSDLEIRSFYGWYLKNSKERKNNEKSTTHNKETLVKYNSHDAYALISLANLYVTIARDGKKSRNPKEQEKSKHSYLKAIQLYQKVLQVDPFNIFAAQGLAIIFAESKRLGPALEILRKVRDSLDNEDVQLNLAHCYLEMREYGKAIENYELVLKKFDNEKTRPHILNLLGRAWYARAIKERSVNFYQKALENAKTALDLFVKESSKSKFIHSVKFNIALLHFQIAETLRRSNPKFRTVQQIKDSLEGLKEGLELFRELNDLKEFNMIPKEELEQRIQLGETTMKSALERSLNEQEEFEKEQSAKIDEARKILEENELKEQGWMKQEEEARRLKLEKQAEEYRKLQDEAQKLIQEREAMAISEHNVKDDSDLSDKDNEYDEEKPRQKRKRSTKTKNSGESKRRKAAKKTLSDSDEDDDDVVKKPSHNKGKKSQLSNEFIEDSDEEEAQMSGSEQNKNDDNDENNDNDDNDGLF

[2] = target: T2, Rtf1 (S. cerevisiae, UniProt P53064 1-558); assay: cross-linking; Pol II-Paf1C-TFIIS EC after SEC, 425 μg/ml, 0.5 mM BS3, 30 min, 30 °C; trypsin, Orbitrap Fusion LC-MS/MS, pLink, FDR 1%; settings: both partners purified
T2 construct: Rtf1, S. cerevisiae, full length, amplified from genomic DNA; source: E. coli BL21 CodonPlus(DE3)RIL, coexpressed with Cdc73; in lysate and purified as part of Paf1C

[3] = target: T3, Leo1 (S. cerevisiae, UniProt P38439 1-464); assay: as above; settings: both partners purified
T3 construct: Leo1, S. cerevisiae, open reading frame chemically synthesized (codon-optimised), in pCDFDuet-1; source: E. coli BL21 CodonPlus(DE3)RIL, coexpressed with the other subunits; in lysate and purified as part of Paf1C
T3 sequence (looked up): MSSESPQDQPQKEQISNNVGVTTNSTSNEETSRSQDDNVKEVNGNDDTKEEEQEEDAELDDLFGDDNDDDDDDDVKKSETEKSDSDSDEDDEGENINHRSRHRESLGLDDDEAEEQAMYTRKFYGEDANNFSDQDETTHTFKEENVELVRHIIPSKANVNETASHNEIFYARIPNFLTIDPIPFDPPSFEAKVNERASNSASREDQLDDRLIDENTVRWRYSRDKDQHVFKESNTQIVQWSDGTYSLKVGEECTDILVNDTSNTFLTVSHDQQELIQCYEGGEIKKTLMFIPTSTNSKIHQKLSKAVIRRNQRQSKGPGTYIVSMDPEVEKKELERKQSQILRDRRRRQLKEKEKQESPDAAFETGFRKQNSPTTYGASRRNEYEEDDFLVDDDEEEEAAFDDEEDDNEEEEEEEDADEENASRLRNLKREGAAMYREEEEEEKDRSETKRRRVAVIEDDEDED

[4] = target: T4, Rpb2 (Pol II subunit) (yeast, UniProt P08518 1-1224); assay: as above; settings: both partners purified
T4 construct: Rpb2, subunit of yeast Pol II; source: part of purified Pol II

[5] = target: T5, Ctr9-ΔC913 (S. cerevisiae, UniProt P89105 1-913); assay: as above; settings: both partners purified
T5 construct: Ctr9, S. cerevisiae, variant lacking 164 amino acids at its C terminus (Ctr9-ΔC913); also called Ctr9 (in the Pol II-Paf1C-TFIIS EC); source: E. coli BL21 CodonPlus(DE3)RIL, coexpressed with the other subunits; in lysate and purified as part of Paf1C-Ctr9-ΔC913
T5 sequence (looked up): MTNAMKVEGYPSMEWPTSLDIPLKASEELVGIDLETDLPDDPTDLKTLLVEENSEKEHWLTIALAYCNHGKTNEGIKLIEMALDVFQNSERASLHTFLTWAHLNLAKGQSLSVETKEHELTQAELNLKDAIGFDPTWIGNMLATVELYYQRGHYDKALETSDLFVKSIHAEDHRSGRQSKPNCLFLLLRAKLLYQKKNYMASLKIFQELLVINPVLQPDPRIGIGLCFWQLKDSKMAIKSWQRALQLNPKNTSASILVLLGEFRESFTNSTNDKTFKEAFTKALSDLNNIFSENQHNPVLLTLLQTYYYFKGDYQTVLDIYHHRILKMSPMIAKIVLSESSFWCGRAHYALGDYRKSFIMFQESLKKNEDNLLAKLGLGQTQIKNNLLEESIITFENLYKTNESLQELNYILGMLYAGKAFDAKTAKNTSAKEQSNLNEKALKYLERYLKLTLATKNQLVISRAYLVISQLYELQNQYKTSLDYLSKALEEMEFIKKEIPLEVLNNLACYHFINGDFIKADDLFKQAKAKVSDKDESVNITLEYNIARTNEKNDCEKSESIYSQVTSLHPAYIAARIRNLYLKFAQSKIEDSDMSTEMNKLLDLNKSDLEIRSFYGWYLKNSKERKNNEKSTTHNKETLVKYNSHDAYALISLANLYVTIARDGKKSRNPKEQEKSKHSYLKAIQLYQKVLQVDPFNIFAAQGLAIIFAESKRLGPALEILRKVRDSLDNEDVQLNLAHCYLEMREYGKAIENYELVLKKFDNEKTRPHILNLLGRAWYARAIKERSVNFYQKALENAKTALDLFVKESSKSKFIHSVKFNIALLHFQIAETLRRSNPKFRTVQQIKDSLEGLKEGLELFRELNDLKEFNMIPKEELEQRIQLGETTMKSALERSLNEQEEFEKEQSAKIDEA

Measured: binding result

T4 sequence (P08518 whole entry): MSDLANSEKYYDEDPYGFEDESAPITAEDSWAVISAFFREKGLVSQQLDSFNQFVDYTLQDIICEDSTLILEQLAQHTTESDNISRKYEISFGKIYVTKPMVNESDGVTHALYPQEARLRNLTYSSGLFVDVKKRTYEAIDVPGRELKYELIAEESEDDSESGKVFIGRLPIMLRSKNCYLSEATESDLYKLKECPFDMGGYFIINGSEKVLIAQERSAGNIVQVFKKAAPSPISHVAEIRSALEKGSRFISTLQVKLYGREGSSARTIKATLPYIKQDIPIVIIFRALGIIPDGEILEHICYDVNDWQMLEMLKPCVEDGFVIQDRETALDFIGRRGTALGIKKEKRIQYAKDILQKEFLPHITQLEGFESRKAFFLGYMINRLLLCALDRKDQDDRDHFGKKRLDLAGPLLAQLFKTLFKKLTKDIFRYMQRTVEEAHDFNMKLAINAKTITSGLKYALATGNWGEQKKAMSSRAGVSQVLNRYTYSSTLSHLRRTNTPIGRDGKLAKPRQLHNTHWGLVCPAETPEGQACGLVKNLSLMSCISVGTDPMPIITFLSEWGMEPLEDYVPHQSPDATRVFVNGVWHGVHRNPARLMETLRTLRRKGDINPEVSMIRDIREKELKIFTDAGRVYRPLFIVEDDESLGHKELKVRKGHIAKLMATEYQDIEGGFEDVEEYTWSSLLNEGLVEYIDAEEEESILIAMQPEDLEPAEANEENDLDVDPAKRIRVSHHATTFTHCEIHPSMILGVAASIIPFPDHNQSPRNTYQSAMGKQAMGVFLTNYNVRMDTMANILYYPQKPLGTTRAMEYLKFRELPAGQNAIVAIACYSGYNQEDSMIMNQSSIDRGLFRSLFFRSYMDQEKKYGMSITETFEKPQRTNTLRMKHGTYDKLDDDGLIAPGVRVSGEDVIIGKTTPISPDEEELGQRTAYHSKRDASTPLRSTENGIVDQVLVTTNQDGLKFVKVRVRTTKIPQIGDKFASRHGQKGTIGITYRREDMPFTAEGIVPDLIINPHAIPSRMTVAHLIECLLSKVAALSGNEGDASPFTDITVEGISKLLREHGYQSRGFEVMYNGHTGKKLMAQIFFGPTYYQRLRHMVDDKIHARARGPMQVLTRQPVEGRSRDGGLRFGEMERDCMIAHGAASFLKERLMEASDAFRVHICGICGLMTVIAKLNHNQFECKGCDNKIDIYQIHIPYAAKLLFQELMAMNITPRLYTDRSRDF
T2 sequence (P53064 whole entry, the tested form may be a part): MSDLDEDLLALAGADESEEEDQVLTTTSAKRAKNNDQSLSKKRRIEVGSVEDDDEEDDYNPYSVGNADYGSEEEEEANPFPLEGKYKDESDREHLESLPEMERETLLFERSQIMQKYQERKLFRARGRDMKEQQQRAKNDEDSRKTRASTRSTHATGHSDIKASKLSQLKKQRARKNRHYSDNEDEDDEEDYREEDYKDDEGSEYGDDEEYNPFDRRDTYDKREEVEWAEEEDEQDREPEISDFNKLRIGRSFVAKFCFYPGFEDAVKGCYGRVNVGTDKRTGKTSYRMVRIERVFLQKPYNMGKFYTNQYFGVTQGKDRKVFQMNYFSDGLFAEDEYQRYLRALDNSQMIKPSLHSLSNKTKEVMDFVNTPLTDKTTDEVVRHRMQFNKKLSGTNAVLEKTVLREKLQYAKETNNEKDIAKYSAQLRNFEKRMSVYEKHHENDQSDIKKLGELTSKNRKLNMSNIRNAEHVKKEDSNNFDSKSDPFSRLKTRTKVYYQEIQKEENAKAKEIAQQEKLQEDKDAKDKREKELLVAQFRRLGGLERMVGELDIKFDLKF

B1: Paf1 (natural protein, S. cerevisiae, UniProt P38351 1-445, looked up)
chain: MSKKQEYIAPIKYQNSLPVPQLPPKLLVYPESPETNADSSQLINSLYIKTNVTNLIQQDEDLGMPVDLMKFPGLLNKLDSKLLYGFDNVKLDKDDRILLRDPRIDRLTKTDISKVTFLRRTEYVSNTIAAHDNTSLKRKRRLDDGDSDDENLDVNHIISRVEGTFNKTDKWQHPVKKGVKMVKKWDLLPDTASMDQVYFILKFMGSASLDTKEKKSLNTGIFRPVELEEDEWISMYATDHKDSAILENELEKGMDEMDDDSHEGKIYKFKRIRDYDMKQVAEKPMTELAIRLNDKDGIAYYKPLRSKIELRRRRVNDIIKPLVKEHDIDQLNVTLRNPSTKEANIRDKLRMKFDPINFATVDEEDDEDEEQPEDVKKESEGDSKTEGSEQEGENEKDEEIKQEKENEQDEENKQDENRAADTPETSDAVHTEQKPEEEKETLQEE
notes: Paf1, S. cerevisiae, open reading frame chemically synthesized (codon-optimised), in pCDFDuet-1; also called polymerase-associated factor 1; source: E. coli BL21 CodonPlus(DE3)RIL, coexpressed with the other subunits; in lysate and purified as part of Paf1C
binds: [1] | [2] | [3] | [4] | [5]
